In IntAct's records for PubMed 20711168:

B1: Dynamin-2 (Rattus norvegicus (Rat)), P39052 (parent)
chain: MGNRGMEELIPLVNKLQDAFSSIGQSCHLDLPQIAVVGGQSAGKSSVLENFVGRDFLPRGSGIVTRRPLILQLIFSKTEYAEFLHCKSKKFTDFDEVRQEIEAETDRVTGTNKGISPVPINLRVYSPHVLNLTLIDLPGITKVPVGDQPPDIEYQIKDMILQFISRESSLILAVTPANMDLANSDALKLAKEVDPQGLRTIGVITKLDLMDEGTDARDVLENKLLPLRRGYIGVVNRSQKDIEGRKDIRAALAAERKFFLSHPAYRHMADRMGTPHLQKTLNQQLTNHIRESLPTLRSKLQSQLLSLEKEVEEYKNFRPDDPTRKTKALLQMVQQFGVDFEKRIEGSGDQVDTLELSGGARINRIFHERFPFELVKMEFDEKDLRREISYAIKNIHGVRTGLFTPDLAFEAIVKKQVVKLKEPCLKCVDLVIQELISTVRQCTSKLSSYPRLREETERIVTTYIREREGRTKDQILLLIDIEQSYINTNHEDFIGFANAQQRSTQLNKKRAIPNQGEILVIRRGWLTINNISLMKGGSKEYWFVLTAESLSWYKDEEEKEKKYMLPLDNLKIRDVEKGFMSNKHVFAIFNTEQRNVYKDLRQIELACDSQEDVDSWKASFLRAGVYPEKDQAENEDGAQENTFSMDPQLERQVETIRNLVDSYVAIINKSIRDLMPKTIMHLMINNTKAFIHHELLAYLYSSADQSSLMEESAEQAQRRDDMLRMYHALKEALNIIGDISTSTVSTPVPPPVDDTWLQNTSSHSPTPQRRPVSSVHPPGRPPAVRGPTPGPPLIPMPVGATSSFSAPPIPSRPGPQNVFANNDPFSAPPQIPSRPARIPPGIPPGVPSRRAPAAPSRPTIIRPAEPSLLD

Variants of: B1
Settings: with sh3k1_human SH3KBP1, Q96B97
sh3k1_human SH3KBP1, Q96B97, sequence (Q96B97 whole entry): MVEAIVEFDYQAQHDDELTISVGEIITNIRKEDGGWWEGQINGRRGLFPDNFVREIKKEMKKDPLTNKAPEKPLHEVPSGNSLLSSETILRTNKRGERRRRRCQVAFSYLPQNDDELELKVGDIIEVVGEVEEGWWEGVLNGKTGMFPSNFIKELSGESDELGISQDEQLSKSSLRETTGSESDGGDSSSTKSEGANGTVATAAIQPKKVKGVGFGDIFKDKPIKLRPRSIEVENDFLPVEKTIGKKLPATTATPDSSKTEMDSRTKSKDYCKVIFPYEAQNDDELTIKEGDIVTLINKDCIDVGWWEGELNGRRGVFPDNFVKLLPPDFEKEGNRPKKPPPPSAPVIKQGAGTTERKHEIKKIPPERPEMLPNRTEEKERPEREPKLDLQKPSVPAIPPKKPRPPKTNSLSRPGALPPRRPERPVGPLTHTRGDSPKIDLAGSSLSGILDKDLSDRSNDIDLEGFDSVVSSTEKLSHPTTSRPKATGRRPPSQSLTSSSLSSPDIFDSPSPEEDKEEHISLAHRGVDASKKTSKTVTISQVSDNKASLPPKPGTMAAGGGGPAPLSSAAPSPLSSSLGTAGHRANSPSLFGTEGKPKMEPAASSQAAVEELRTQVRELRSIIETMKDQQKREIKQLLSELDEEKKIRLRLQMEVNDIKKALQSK

Row | Variant | effect of a mutation on the interaction
1 | P767A | disrupting interaction
2 | P765A | disrupting interaction
